PMC11578312, “Proximity‐Unlocked Luminescence by Sequential Enzymatic Reactions from Antibody and Antibody/Aptamer (PULSERAA): A Platform for Detection and Visualization of Virus‐Containing Spots”

Key:
myoglobin (Mb) [1] = molecular target: T1, myoglobin (Mb) (UniProt P02144 2-154); experiment: dot blot (aptamer blotting); folded in 10 mM K acetate pH 5.0; dot blot: 10 mM sodium phosphate pH 7.0, 10 mM KCl, 0.05% Tween-20, 100 nM oligonucleotide, 25 C, 1 h (block 2% BSA); ELONA: 500 nM aptamer, 25 C, 1 h, TBS-T wash; settings: protein: commercial; label: 3'-biotinylated oligonucleotide mixed; mixed or hybrid (3+1) G4 at pH 5.0
T1 sequence: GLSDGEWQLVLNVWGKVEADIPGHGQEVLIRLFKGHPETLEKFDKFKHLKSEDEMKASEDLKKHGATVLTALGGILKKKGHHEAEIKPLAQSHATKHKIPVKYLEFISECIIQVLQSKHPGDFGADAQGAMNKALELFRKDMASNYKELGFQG

myoglobin (Mb) [2] = molecular target: T1, myoglobin (Mb); experiment: dot blot (aptamer blotting); folded in 10 mM K acetate pH 5.0; higher signal than N2 at low Mb; dot blot: 10 mM sodium phosphate pH 7.0, 10 mM KCl, 0.05% Tween-20, 100 nM oligonucleotide, 25 C, 1 h (block 2% BSA); ELONA: 500 nM aptamer, 25 C, 1 h, TBS-T wash; settings: protein: commercial; label: 3'-biotinylated oligonucleotide mixed; parallel G4 at pH 7.0 with 10 mM Na+ and 10 mM K+

Q: Does GGGGCTGCTCGGGATTGCGGATATGGTTTGGGCGGGTTGGGCTGGG (structured_DNA) [RBD-46–PEA3-01] bind (myoglobin (Mb) [1])?
A: binds

Q: Does GGGCGGGTTGGGCTGGGTTTGGGGCTGCTCGGGATTGCGGATATGG (structured_DNA) [PEA3-01–RBD-46] bind (myoglobin (Mb) [2])?
A: binds
